Earlier results as cited in patent US20040101532A1, “Methods and compositions for heat shock protein mediated immunotherapy of melanoma” (priority 2004, published 2004).

Legend:
[1] = test system: CD8+ cytotoxic T lymphocytes; details: HLA-A*0201-restricted TRP-2 peptides
gp100 = details: detected without extensive preliminary in vitro sensitization
[2] = vaccinated patients
tyrosinase = details: vaccinated patients, after immunization with the tyrosinase peptide antigen

For “TLDSQVMSL [TRP-2(360-368), HLA-A*0201-restricted TRP-2 peptide]”, the “induction of specific CD8+ cytotoxic T lymphocytes” value [1] is listed as “induced specific CD8+ cytotoxic T lymphocytes”.

In the case of “IMDQVPFSV [gp100:209-217 peptide modified at second position, methionine for threonine]”, the “anti-gp100 T cell reactivity induced by immunization” value (gp100) is given as “induce anti-gp 100 T cell reactivity”.

For YMDGTMSQV [tyrosinase:368-376 (370D)], the “tolerability in clinical trial” value [2] is listed as “well tolerated with little toxicity” and the “increase in T cell responsiveness against tyrosinase by ELISPOT” value (tyrosinase) is listed as “Two of nine vaccinated patients showed an increase in T cell responsiveness”.

In the case of “VMGTLVALV [TRP-2(476-484), HLA-A*0201-restricted TRP-2 peptide]”, the “induction of specific CD8+ cytotoxic T lymphocytes” value [1] is listed as “induced specific CD8+ cytotoxic T lymphocytes”.
